Where no end group is shown, it is not given here. [ ]: non-standard residue; d: D form. pT = C[C@@H](OP(=O)(O)O)[C@H](N)C(=O)O; pS = N[C@@H](COP(=O)(O)O)C(=O)O
How the values were obtained:
pCdc25C = target: T1, pCdc25C (Homo sapiens); test: ITC
T1 chain: EQPL[pT]PVTDL

trans-locked inhibitor = target: T2, trans-locked inhibitor (also: trans-locked alkene isostere, place not given here); test: NMR titration
T2 chain: FF[pS]PR

cis-locked inhibitor = target: T3, cis-locked inhibitor (also: cis-locked alkene isostere, place not given here); test: NMR titration
T3 chain: FF[pS]PR

Kd (pCdc25C): > 1000 µM | Kd (trans-locked inhibitor): 66 µM | Kd (cis-locked inhibitor): 7 µM
B1: Pin1 PPIase domain (isolated) PPIase (protein)
chain: PARVRCSHLLVKHSQSRRPSSWRQEKITRTKEEALELINGYIQKIKSGEEDFESLASQFSDCSSAKARGDLGAFSRGQMQKPFEDASFALRTGEMSGPVFTDSGIHIILRTE

— paper PMC4610412 (2016)
